This passage reports Kd results from patent EP4600270A1 (ImnoTech GmbH, dated 2025).

As usually defined, the Kd is a measure of binding affinity in units of concentration. Low readings indicate higher affinity, high ones lower affinity.

T1: human CD7 (cluster of differentiation 7) (human, UniProt P09564 26-240)
T1 construct: also called CD7 target antigen; CD7 surface marker
T1 sequence: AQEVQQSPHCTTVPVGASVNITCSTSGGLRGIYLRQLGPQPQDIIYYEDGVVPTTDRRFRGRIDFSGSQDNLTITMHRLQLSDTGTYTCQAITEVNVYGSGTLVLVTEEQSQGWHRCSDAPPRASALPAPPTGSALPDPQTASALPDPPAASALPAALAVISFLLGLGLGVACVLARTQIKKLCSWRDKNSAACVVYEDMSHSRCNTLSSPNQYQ

B1: SEQ ID NO 13 (VHH)
VHH: QVQLQESGGGLVQSGGSLRLSCAASRRIFEINVMGWYRQAPEKQRELVGTITSFGGTNYADSVKGRFTISADYAKNTMYLQMNSLNPEDTAVYYCNAHYFSNDYWGQGTQVTVSS
notes: Single domain antibody against human CD7; also called anti-CD7 sdAb
B2: SEQ ID NO 4 (VHH)
VHH: QVQLQESGGGLVQAGDSLRLSCAASGLTVSSYGMGWFRQAPGKEREFVVDISRGGGSTSYADSVKGRFTIARDNAKNTLYLQMNSLKPEDTAVYSCAARKYAHYEYWGQGTQVTVSS
notes: as for B1
B3: SEQ ID NO 9 (VHH)
VHH: QVQLQESGGGLVQAGDSLRLSCAASGLTVSSYGMGWFRQAPGKEREFVADISRGGGSTLYADSVKGRFTISRDNGKNTLYLQINSLKPEDTAVYSCAARKYAEWDYWGQGTQVTVSS
notes: as for B1
B4: SEQ ID NO 7 (VHH)
VHH: QVQLQESGGGLVQAGDSLRLSCAASGLTVSMYGMGWFRQAPGKEREFVADISRGGGSTSYTDSVKGRFTISRDNAKNTLYLQMNSLKPEDTAVYSCAARKYAHYEYRGQGTQVTVSS
notes: as for B1
B5: SEQ ID NO 8 (VHH)
VHH: QVQLQESGGGLVQTGDSLRLSCAASGLTVSSYGMGWFRQAPGKEREFVADISRGGGSTLYADSVKGRFTISRDNLKNTLYLQMNSLKPEDTAVYSCAARKYAEWNYWGQGTQVTVSS
notes: as for B1
B6: SEQ ID NO 2 (VHH)
VHH: QVQLQESGGGLVQAGGSLRLSCAASGRTFSDYLMGWFRQTPGKEREFVAAIYWNAGSTYYADSVKGRFTISRDNTKNTMYLQMNSLKPEDTAVYYCAAGQRGLAYARTYDYDYWGQGTQVTVSS
notes: as for B1

For this test, the target named is T1, human CD7 (cluster of differentiation 7). The test can be described thus: flow cytometry titration on human CD8+ T cells, one-site specific binding fit. On the technique in general: A flow cytometer gives signals particle by particle.
In turn, B1 had a Kd of 3.9 nM. With B2 the figure was 5.66 nM; with B3, 4.04 nM; with B4, 11 nM. With B5 the figure was 8.16 nM; with B6, 6.34 nM.
